{
  "source": "paper PMC9270954",
  "target": "GST–Rac1a (full-length Dictyostelium Rac1a as a GST fusion, GTP-bound form) (Dictyostelium) (UniProt P34144)",
  "data": [
    {"substance": "GST–GAP-RΔA (GAP domain of CARMIL-GAP with the conserved arginine changed to alanine, as a GST fusion) (domain or fragment)", "values": [
      {"measurement": "fold activation of the GTP hydrolysis rate of GST–Rac1a (10 µM) by 2.5 µM GST–GAP-RΔA, 10 min at 20°C, free phosphate by CytoPhos; Rac1a alone normalized to 1.0", "value": 1.74, "unit": "fold"}
    ]},
    {"substance": "GST–GAP (isolated GAP domain of CARMIL-GAP, residues 715–858, as a GST fusion) (domain or fragment)", "values": [
      {"measurement": "fold activation of the GTP hydrolysis rate of GST–Rac1a (10 µM) by 2.5 µM GST–GAP, 10 min at 20°C, free phosphate by CytoPhos; Rac1a alone normalized to 1.0", "value": 5.8, "unit": "fold"}
    ]}
  ]
}
